These results are taken from patent KR20220147769A (dated 2022).

Substitutions are numbered along the chain they refer to.

B1: RB6 (antibody, V domains shown)
VH: EVQLLESGGGLVQPGGSLRLSCAASGFTFSSYDMSWVRQAPGKGLEWVSGISYSGGSTYYADSVKGRFTISRDNSKNTLYLQMNSLRAEDTAVYYCARDVNFVPLVTFDYWGQGTLVTVSS
VL: QSVLTQPPSASGTPGQRVTLSCTGSSSNIGSNSVTWYQQLPGTAPKLLIYDDNQRPSGVPDRFSGSKSGTSASLAISGLRSEDEADYYCGTWDYSLSAYVFGGGTKLTVL
notes: also called clone RB6; antibody (iii)
B2: RD10 (antibody, V domains shown)
VH: EVQLLESGGGLVQPGGSLRLSCAASGFTFSDYAMSWVRQAPGKGLEWVSAIYPGGGSTYYADSVKGRFTISRDNSKNTLYLQMNSLRAEDTAVYYCARNLFGFDYWGQGTLVTVSS
VL: B1 VL with L20I, S33A, T35Y, N53S, Q54N, T91S, Y94D
notes: also called clone RD10; antibody (v)
B3: RD3 (antibody, V domains shown)
VH: EVQLLESGGGLVQPGGSLRLSCAASGFTFSDYAMSWVRQAPGKGLEWVSWIYSGSGNKYYADSVKGRFTISRDNSKNTLYLQMNSLRAEDTAVYYCARFPIARTSNSQSSYDGMDVWGQGTLVTVSS
VL: B1 VL with L20I, T23S, S33A, T35S, D51A, Q54K, T91A, Y94S, S97N
notes: also called clone RD3; antibody (iv)

The target of the assay is T1, SARS-CoV S protein RBD antigen (SARS-CoV, UniProt P59594 306-527).
T1 construct: also called SARS-CoV RBD
Kind of assay: ELISA, 0.1 μg antigen coated, IgG4.
On to B1, for which the binding result is “binds”.
With B2, the binding result is “binds”.
Then B3, with “binds”.
